In article doi:10.1101/2021.08.16.456439:

Key:
CyPet-Ubc9 = CyPet-Ubc9 (UniProt P63279); experiment: FRET or BRET
[1] = target: CyPet-NS1 (influenza virus) (UniProt P03496); experiment: FRET or BRET

UniProt P63279, sequence (P63279 whole entry): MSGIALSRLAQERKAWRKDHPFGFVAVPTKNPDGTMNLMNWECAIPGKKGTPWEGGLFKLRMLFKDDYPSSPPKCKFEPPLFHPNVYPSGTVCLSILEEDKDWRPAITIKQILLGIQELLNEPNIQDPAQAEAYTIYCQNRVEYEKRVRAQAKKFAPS

Substance: YPet-NS1 (from UniProt P03496 1-230) (natural protein)
- Kd (CyPet-Ubc9): 4.84 µM

Substance: YPet-PIAS1 (from UniProt O75925 1-651) (enzyme)
- Kd [1]: 2.96 µM
